{"source": "patent US20250257357", "key": {"[1]": {"molecular_target": "C-terminal SNAP-tagged H3.3 K27M (UniProt P84243)"}, "[2]": {"molecular_target": "C-terminal SNAP-tagged H3.3 G34R (UniProt P84243)"}}}
{"substance": "Polynucleotide Kinase 3′-Phosphatase (PNKP)", "values": [{"measurement": "NHEJ activity by random plasmid integration assay upon knockdown of PNKP", "setting": "[1]", "result": "it does reduce NHEJ in H3.3K27M and G34R cells"}, {"measurement": "NHEJ activity by random plasmid integration assay upon knockdown of PNKP", "setting": "[2]", "result": "it does reduce NHEJ in H3.3K27M and G34R cells"}]}
